The values below come from article PMC12049944.

Holding throughout (assay): cross-linking; intermolecular disulfides between Cys residues introduced in helices 4 and 6 of APOA1 in rHDL; SDS-PAGE under reducing and oxidising conditions
In assay [1] the target is APOA1 double Cys mutant K107C/H155C in rHDL (human).
The target of assay [2] is APOA1 double Cys mutant M112C/M148C in rHDL (human).
For assay [3], the target named is APOA1 double Cys mutant Y100C/M162C in rHDL (human).
Assay [4] deals with APOA1 double Cys mutant Y115C/E147C in rHDL (human).

Consider “APOA1 double Cys mutant K107C/H155C in rHDL”, for which the percent of APOA1 remaining monomeric (oxidising conditions) in assay [1] is 10%.

In assay [2], “APOA1 double Cys mutant M112C/M148C in rHDL” showed a percent dimer (oxidising conditions) of 50%.

In the case of “APOA1 double Cys mutant Y100C/M162C in rHDL (natural protein)”, the percent of APOA1 remaining monomeric (oxidising conditions) in assay [3] was 10%.

“APOA1 double Cys mutant Y115C/E147C in rHDL” registered a percent of APOA1 remaining monomeric (oxidising conditions) in assay [4] of 10%.
